Data set [1] deals with von Willebrand factor A1 domain (human) (Homo sapiens, UniProt P04275 SEQ:13-246). Kind of data set: filter; 100 nM protein. The text has this:
When a significant positive ratio of binding of RNA in the presence of human or rabbit vWF A1 domain (SEQ ID NOS […] and 6, respectively) versus in the absence of protein was seen, the pools were cloned using the TOPO TA cloning kit (Invitrogen Cat.# 45-0641, Carlsbad, Calif.) according to the manufacturer's instructions. Round 9 and 12 pool templates were cloned and sequenced (185 total sequences), producing 78 unique clones within 3 sequence families. All unique clones were transcribed, desalted, 5-³²P end-labeled, and assayed in a 3-point dot blot screen (no protein target control, 100 nM human vWF A1 domain (SEQ ID NO 5), or 100 nM rabbit vWF A1 domain (SEQ ID NO 6). The data are presented in the third and fourth columns of Table 9 below as the ratio of the fraction of the aptamer bound to the nitrocellulose in the presence of the target protein to the fraction of aptamer bound in the absence of the target protein. Of the three sequence families, members of Family #1 and # 2 and two individual, non-family aptamers, bound to both human vWF domain A1 (SEQ ID NO 5) and rabbit vWF domain A1 (SEQ ID NO 6).

In data set [2] the target is von Willebrand factor full length (Homo sapiens, UniProt P04275 SEQ:764-2813). Kind of data set: filter; 54% bound at 100 nM. The conditions noted are these: tags: Calbiochem 681300. How it is done: For KD determination, chemically synthesized aptamers were purified using denaturing polyacrylamide gel electrophoresis, 5′end labeled with γ-³²P ATP and were tested for direct binding to full length human vWF (Calbiochem Cat.# 681300, La Jolla, Calif.). An 8 point protein titration was used in the dot blot binding assay (100 nM, 30 nM, 10 nM, 3 nM, 1 nM, 300 pM, 100 pM, 0 pM)) in 1× Dulbecco's PBS containing […] (final volume of 50 uL) for 30 minutes at room temperature. KD values were calculated by fitting the equation y=(max/(1+K/protein))+yint using KaleidaGraph (KaleidaGraph v. 3.51, Synergy Software).

The values that follow come from patent publication US20060264369, “Aptamers to von Willebrand Factor and their use as thrombotic disease therapeutics” (published 2006).

In general, Kd refers to the concentration at which binding is half-saturated.

B1: AMX203.F9 (mixed)
DNA: GGAGCGCACTCAGCCACTGAAGGGTAAGGACGAGGAGGGTATACAGTGTGCGCGTGTATTTCGACCTCTCTGCTAGC
modifications: ribo purines, deoxy pyrimidines
Regarding B1, the binding signal in data set [1] was 1.45 ratio to no protein.

B2: ARC1207 (ssDNA)
DNA: GGCGTGCAGTGCCUTCGGCCGTGCGGTGCCTCCGTCACGCC
modifications: 2'-OMe at 14 (mU); 3'-idT
As to B2, the Kd in data set [2] is 2 nM.
